The subject of data set [1] is p007 (Artificial Sequence). The note with it: scale: fold average specificity ratio for hsCRE over any site in CT DNA.
The test system of data set [2] is T1, PPBR4SR (PPBR4) (Artificial Sequence).
T1 sequence: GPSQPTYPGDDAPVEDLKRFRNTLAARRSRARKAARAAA
As to the kind of experiment: EMSA. (In general: A gel shift assay detects complexes by their altered migration in electrophoresis.)

For the next data set, the target named is G56 (GCN4 bZIP element) (UniProt P03069). As to the kind of experiment: EMSA.
Data set [3] relates to p016 (Artificial Sequence). As to the kind of experiment: EMSA. To be noted: 4 C.
Data set [4] deals with p007 (Artificial Sequence). The experiment in a line: EMSA.
In data set [5] the test system is T2, PPBR2SR (Artificial Sequence).
T2 sequence: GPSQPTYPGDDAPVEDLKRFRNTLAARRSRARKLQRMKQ
The experiment in a line: EMSA. The note with it: physiological ionic strength, on ice.

For data set [6], the system named is T3, PPBR4-deltaSR (Artificial Sequence).
T3 sequence: T1 sequence with A31L
The experiment in a line: EMSA. The note with it: hydrophobic core disrupted; scale: kcal/mol less stable than PPBR4SR-hsCRE24.

Data set [7] deals with p012 (Artificial Sequence). The experiment in a line: EMSA. The note with it: 4 C.
Data set [8] has as its target G27 (isolated GCN4 basic region) (UniProt P03069). As to the kind of experiment: EMSA.
For data set [9], the system named is p011 (Artificial Sequence). As to the kind of experiment: EMSA. To be noted: 4 C.
In data set [10] the test system is PPBR4 on phage (Artificial Sequence). As to the kind of experiment: pulldown. To be noted: phage panning, PBS, 0.1% NP-40, 2.5 ug/ml poly-dIdC, 4 C.
Data set [11] concerns aPP (avian pancreatic polypeptide) (avian). The experiment in a line: pulldown. To be noted: phage panning, negative control; computed from the stated 10-fold.

Numbering of substitutions follows the chain as printed.

Take calf thymus DNA: the binding signal in [1] was 4170.

With hsCEBP24, the binding signal turned out to be 2600 in data set [2] (ddG -4.4 kcal/mol, scale: fold specificity ratio for hsCRE24 over hsCEBP24) and 180 with G56 (GCN4 bZIP element) (ddG -2.9 kcal/mol, scale: fold specificity ratio for hsCRE24 over hsCEBP24).

As a reminder, the Kd is the equilibrium constant for the complex coming apart. Consider hsCRE24, for which the Kd in data set [3] was 0.3 nM; in data set [4] (4 C, PBS-type buffer with 1 mM EDTA), 0.023 nM; in data set [4] (25 C), 1.6 nM; in data set [5], 5 nM; in data set [7], 2.5 nM; in data set [8] (4 C), 410 nM. The Kd in data set [2] (PPBR4, 4 C) stood at 1.9 nM; in [2] (physiological ionic strength, on ice), 1.5 nM; in data set [9], 1.5 nM. For the same substance, the binding signal in data set [6] amounted to 3.2; in data set [8] (lacks polyproline helix and turn, scale: kcal/mol less stable than PPBR4SR-hsCRE24) it was 3.1. The binding signal (fold preference over hsCEBP24) in the data set with G56 (GCN4 bZIP element) was found to be 180.

hsCRE24 on beads registered a binding signal (fold retention over aPP phage) in data set [10] of 10. Besides, the binding signal (fold retention relative to PPBR4 phage) in data set [11] was found to be 0.1.

(Values after patent US20050287542.)
